The target of this assay is PICK1 PDZ domain with an additional C-terminal fusion (NKLQQSAV), oxidized, bCPA-treated dimer (UniProt Q9NRD5). Briefly: crystal structure; dimeric bCPA-treated PICK1 PDZ with compound 1o; space group P3_(2), one disulfide bridged dimer per asymmetric unit; 1.69 Å.

“PICK1 PDZ domain with an additional C-terminal fusion (NKLQQSAV), oxidized, bCPA-treated dimer (from UniProt Q9NRD5 1-105) (domain or fragment)”: the stoichiometry N (usually the number of molecules, sites or subunits per partner or assembly) turned out to be 2.

Source of the values: article PMC6128908, “Potent PDZ-Domain PICK1 Inhibitors that Modulate Amyloid Beta-Mediated Synaptic Dysfunction” (Scientific Reports, 2018).
